In publication PMC8488560:

Biological target: clathrin (triskelia purified from pig brain clathrin-coated vesicles) (pig)
Experiment: cryo-EM structure; clathrin cages assembled with a 60-fold molar excess of β2HA; single particle analysis of minicoat cages, signal subtraction, masked 3D classification and localized reconstruction; compared with clathrin-only minicoat cages

stoichiometry N (β2HA per terminal domain): 0.5
Substance: β2-adaptin 616-951, hinge and appendage of the human β2 subunit of the AP2 complex (β2HA) (from UniProt P63010-2 616-951) (domain or fragment)
